According to article PMC2171822:

Target: tetramethylrhodamine-labeled microtubule (tubulin purified from bovine brain) (bovine) (UniProt Q6B856)
Assay: fluorescence microscopy of kinesin-coated beads binding to a single microtubule

Substance: native kinesin purified from bovine brain (complex)
- average binding frequency: 0.018 μm^−1 s^−1
- koff: 0.004 s⁻¹
